Assay results taken from patent US7271245B2, “Methods and compositions for inhibition of metastasis” (The Scripps Research Institute, priority 2004, dated 2007).

What was measured:
[1] = system: BMS human breast cancer cells; experiment: Haptotactic tumor cell migration toward fibrinogen (transwell); format: cell-based; settings: 200 μM peptide, 16 hrs at 37° C.
Protocol: (§1) FIGS. 3A, 3B, 3C, 3D, 3E. scFv Bc-12 and Bc-15 inhibit αvβ3 mediated adhesive breast cancer cell functions. (A) Adhesion of BMS human breast cancer cells to fibrinogen (Fg), vitronectin (VN) or type I collagen (Col I) in the absence or presence of 3 μM Bc-12, Bc-15 or their RGE mutants Mut-12, Mut-15, compared to 200 μM GRGDSPK peptide (SEQ ID NO: 11). Protein coating concentrations: 10 μg/ml (VN, Col I) or 20 μg/ml (Fg). Adhesion time: 30 min at 37° C. (B) Effect of scFvs on haptotactic BMS cell migration toward a fibrinogen substrate (16 hrs at 37° C. in transwell chambers with or without 2 μM Bc-12, Bc-15 or their RGE mutants Mut-12 or Mut-15, compared to 200 μM GRGDSPK peptide) (SEQ ID NO: 11). (C) Effect of scFvs on breast cancer cell arrest during blood flow. Metastatic BMS cells, labeled with hydroethidine, were suspended in human blood (anticoagulated with 50 nM PPACK) and perfused over a collagen I matrix at a venous wall shear rate of 50 s^−1. Under these conditions, breast cancer cells arrest by αvβ3 mediated binding to adherent, thrombus forming platelets. Tumor cell adhesion was quantified by image acquisition at 30 predefined positions during blood flow. Left: representative images of platelet signal (thrombi, green fluorescence) and tumor cell signal (red fluorescence) at identical x,y positions. Right: Number of arrested tumor cells in the presence of 3 μM non-function blocking anti αv scFv Bc-20 or function blocking anti αvβ3 scFvs Bc-12 or Bc-15. (D) scFv Bc-15 is internalized by human breast cancer cells and reduces cell proliferation. Left: confocal images of BMS cells incubated for 4 hrs with FITC-Bc-15 at 4° C. (binding) versus 37° C. (allowing internalization). Right: Phase contrast images of BMS cell cultures 4 days after seeding in the presence of 2 μM RGE containing scFv Mut-15, or RGD containing Bc-15. […]
Cell adhesion and migration. Tumor cell adhesion under stationary conditions was analyzed as detailed earlier (19). […] Haptotactic tumor cell migration toward fibrinogen was analyzed in transwell chambers as detailed earlier. […]

[2] = system: BMS human breast cancer cells; experiment: Tumor cell adhesion under stationary conditions; format: cell-based; settings: 200 μM peptide, 30 min at 37° C.
Protocol: FIGS. 3A, 3B, 3C, 3D, 3E. scFv Bc-12 and Bc-15 inhibit αvβ3 mediated adhesive breast cancer cell functions. (A) Adhesion of BMS human breast cancer cells to fibrinogen (Fg), vitronectin (VN) or type I collagen (Col I) in the absence or presence of 3 μM Bc-12, Bc-15 or their RGE mutants Mut-12, Mut-15, compared to 200 μM GRGDSPK peptide (SEQ ID NO: 11). Protein coating concentrations: 10 μg/ml (VN, Col I) or 20 μg/ml (Fg). Adhesion time: 30 min at 37° C. (B) Effect of scFvs on haptotactic BMS cell migration toward a fibrinogen substrate (16 hrs at 37° C. in transwell chambers with or without 2 μM Bc-12, Bc-15 or their RGE mutants Mut-12 or Mut-15, compared to 200 μM GRGDSPK peptide) (SEQ ID NO: 11). (C) Effect of scFvs on breast cancer cell arrest during blood flow. Metastatic BMS cells, labeled with hydroethidine, were suspended in human blood (anticoagulated with 50 nM PPACK) and perfused over a collagen I matrix at a venous wall shear rate of 50 s^−1. Under these conditions, breast cancer cells arrest by αvβ3 mediated binding to adherent, thrombus forming platelets. Tumor cell adhesion was quantified by image acquisition at 30 predefined positions during blood flow. Left: representative images of platelet signal (thrombi, green fluorescence) and tumor cell signal (red fluorescence) at identical x,y positions. Right: Number of arrested tumor cells in the presence of 3 μM non-function blocking anti αv scFv Bc-20 or function blocking anti αvβ3 scFvs Bc-12 or Bc-15. (D) scFv Bc-15 is internalized by human breast cancer cells and reduces cell proliferation. Left: confocal images of BMS cells incubated for 4 hrs with FITC-Bc-15 at 4° C. (binding) versus 37° C. (allowing internalization). Right: Phase contrast images of BMS cell cultures 4 days after seeding in the presence of 2 μM RGE containing scFv Mut-15, or RGD containing Bc-15. (E) Effect of scFv Bc-12 on the viability of matrix deprived BMS breast cancer cells in ultra-low-adhesion plates in the presence or absence of 3.7 μM scFv, or 14.36 μM camptothecin as apoptosis inducing control. Measurement of apoptosis was based on cytoplasmic histone-associated DNA fragments after 20 hrs.
Cell adhesion and migration. Tumor cell adhesion under stationary conditions was analyzed as detailed earlier (19). Adhesion buffer was Hanks balanced salt solution (HBSS) pH 7.4, 0.5% BSA, 1 mM MgCl2, 0.2 mM MnCl2. For inhibition, cells were incubated for 5 min at RT either with 3 μM scFv or 200 μM GRGDSPK (SEQ ID NO: 11) peptide, then plated in the presence of inhibitor and allowed to attach for 30 min at 37° C. Haptotactic tumor cell migration toward fibrinogen was analyzed in transwell chambers as detailed earlier. Rolli, M., et al., Proc. Natl. Acad. Sci. U.S.A 100: 9482-9487, 2003. […]

[3] = system: integrin αvβ3; experiment: Flow cytometry, scFv binding to human tumor cell panel
Protocol: FIGS. 1A, 1B, 1C. Patient derived scFvs Bc-12 and Bc-15 recognize tumor cell integrin αvβ3 in a cation and activation dependent manner. Flow cytometric analyses in TBS with or without 1 mM Ca^2+, 1 mM Mg^2+, or 0.2 mM Mn^2+ as indicated. Binding of soluble scFv detected after incubation with anti-Flag M2 murine mAb followed by FITC-anti mouse F(ab′)2. (A) scFv binding to human melanoma cells (M21: αvβ3 plus other αv integrins) (M21-LIIb: αIIbβ3, no αv integrins) or lung adenocarcinoma cells (UCLA-P3: αv integrins, no β3 integrin). (B) scFv binding to M21 melanoma cells. (C) scFv binding to variants of MDA-MB 435 human breast cancer cells that lack (β^3−) or express αvβ3 either in a non-activated (β3WT, ParentCo) or activated form (β3D723R, Bone, Lung, and BMS metastatic cancer cells isolated from breast cancer patient blood).
Flow cytometry. scFv binding to human tumor cells was analyzed by flow cytometry, initially with cloned scFv phage and then with purified scFv protein. Per sample, 2×10^5 tumor cells were blocked with goat serum and incubated either with scFv phage (2-5×10^10) (1 h at RT) followed by mouse anti-M13 mAb (Serotec) (30 min on ice) and goat FITC-anti mouse (Pierce) (30 min on ice), or with purified scFv (1.25 to 40 μg/ml, routinely 10 to 15 μg/ml) (45 min on ice), followed by mouse anti-FLAG mAb M2 (Sigma) (30 min on ice) and goat FITC-anti mouse. Binding/washing buffer was TBS with or without divalent cations (1 mM Ca^2+, 1 mM Mg^2+, 0.2 mM Mn^2+). Alternatively, tumor cells were washed in 10 ml of plasma (prepared freshly from human blood anticoagulated with 50 nM D-Phe-D-Pro-D-arginyl chloromethyl ketone, PPACK, Felding-Habermann et al., J. Biol. Chem. 271: 5892-5900, 1996), resuspended in plasma and then incubated sequentially, without washing, with purified scFv (45 min on ice), followed by anti-FLAG M2 (30 min on ice) and FITC-anti mouse (30 min on ice). All samples were counter stained with propidium iodide (PI) and analyzed on a Becton-Dickinson FACScan, with live gate set to exclude PI positive cells.
To generate therapeutic reagents that specifically react with activated αvβ3, a phage display library of single chain antibody fragments (scFv) was exploited. This library was derived from cancer patient blood lymphocyte cDNA libraries and allowed us to test the hypothesis that the expressed immune repertoire contains antibodies that recognize integrin αvβ3, and distinguish between its activated and non-activated forms. Mao et al., Proc. Natl. Acad. Sci. U.S.A 96: 6953-6958, 1999. A subtractive panning approach was designed based on variants of MDA-MB 435 human breast cancer cells. […] Apparently, these cells are selected during metastasis, as variant cells isolated from lung and bone metastases in immune deficient mice express constitutively activated αvβ3. To establish a cell population that uniformly expresses non-activated αvβ3, MDA-MB 435 parental cells were cloned by limiting dilution, and clones tested for αvβ3 functionality. […] A cell line, MDA-MB 435 Lung-Lung, was established which expressed αvβ3 in a constitutively activated form. This variant stems from a lung metastase of an immune deficient mouse whose mammary fat pad had been injected with parental MDA-MB 435 cells. Felding-Habermann et al., Proc. Natl. Acad. Sci. U.S.A 98: 1853-1858, 2001; Rolli et al., Proc. Natl. Acad. Sci. U.S.A 100: 9482-9487, 2003. To enrich for the ability to colonize the lung from the blood stream, the Lung variant was subsequently injected intravenously, and tumor cells cultured 3 weeks later from the excised lung. Parent Combo cells were used to subtract the scFv phage library to eliminate antibodies against antigens shared by the MDA-MB 435 cell variants. […]

[4] = system: BMS breast cancer cells; experiment: Tumor cell arrest during blood flow; format: cell-based; settings: 3 μM scFv, human blood, collagen I matrix, shear rate 50 s^−1
Protocol: as §1, with “positions.” for “positions. Right: Number of arrested tumor cells in the presence of 3 μM non-function blocking anti αv scFv Bc-20 or function blocking anti αvβ3 scFvs Bc-12 or Bc-15. (D) scFv Bc-15 is internalized by human breast cancer cells and reduces cell proliferation. Left: confocal images of BMS cells incubated for 4 hrs with FITC-Bc-15 at 4° C. (binding) versus 37° C. (allowing internalization). Right: Phase contrast images of BMS cell cultures 4 days after seeding in the presence of 2 μM RGE containing scFv Mut-15, or RGD containing Bc-15.”
Tumor cell arrest during bloodflow. Breast cancer cell arrest during blood flow and interaction with platelets was measured as described. […] Adhesive events and cell interactions were visualized and recorded by fluorescence video microscopy and quantified by image acquisition at 30 predefined positions followed by computerized image analysis (MetaMorph, Universal Imaging). Tumor cells were stained with hydroethidine (red fluorescence) (20 μg/ml, 30 min, 37° C.), washed, and mixed with blood containing 10 μM mepacrine (green fluorescence). Blood cells, tumor cells, and platelets acquired green fluorescence and were visualized at 488/515 nm (excitation/emission). Tumor cells were identified by their unique red fluorescence at 543/590 nm. […]

[5] = system: human melanoma cells; settings: mouse model; cited from earlier work

## GRGDSPK [a fibronectin derived peptide, reference compound]
[1]
  fibrinogen directed migration: This effect was similar to that seen with 200 μM GRGDSPK
[2]
  adhesion to immobilized fibrinogen: extent of inhibition by 3 μM scFv was similar to that observed with 200 μM GRGDSPK

B1: Bc-20: non-RGD containing, non-function blocking anti αv scFv (protein)
scFv: MAQVQLVQSGGGLVQPGGSLRLSCAASGFTFSSYWMSWVRQAPGKGLEWVANIKQDGSEKYYVDSVKGRFTISRDNAKNSLYLQMNSLRAEDTAVYYCARDGGFAGWAFDIWGQGTTVTVSSGGGGSGGGGSGGGGSDIQMTQSPSALSASVGDRVTITCRASQGLDNYLAWYQLQPGKAPKLLIYDAFTLQSGVPSRFSGGGSGTDFTLTISSLQPEDFATYFCQQLQSYPLTFGGGTKVEIKRGLGGLVDYKDDD
[3]; M21, M21-LIIb, UCLA-P3 cells, flow cytometry
  reactivity with human tumor cells that express or lack αvβ3: reacted with αv positive cells, regardless of the associated β subunit
[3]; TBS with or without divalent cations
  cation requirement of binding: did not require divalent metal cations
[4]
  breast cancer cell arrest during blood flow: no effect

B2: LM609: function blocking antibody against integrin αvβ3 (antibody, V domains shown)
VH: EVQLEESGGGLVKPGGSLKLSCAASGFAFSSYDMSWVRQIPEKRLEWVAKVSSGGGSTYYLDTVQGRFTISRDNAKNTLYLQMSSLNSEDTAMYYCARHNYGSFAYWGQGTLVTVSA
VL: ELVMTQTPATLSVTPGDSVSLSCRASQSISNHLHWYQQKSHESPRLLIKYASQSISGIPSRFSGSGSGTDFTLSINSVETEDFGMYFCQQSNSWPHTFGGGTKLEIKRA
[5]
  metastatic activity of human melanoma cells: inhibited metastatic activity of human melanoma cells in a mouse model
